Patent US20230242654A1, “REAGENTS FOR EXPANDING CELLS EXPRESSING RECOMBINANT RECEPTORS” (Juno Therapeutics, Inc., priority 2017, published 2023)

Assays:
[1] = system: T cells transduced with anti-CD19 CAR having an scFv derived from FMC63; assay: CAR-specific cell expansion with anti-ID B-1 conjugated beads, 9 days, two patient donors; assay type: cell-based, human
Description: Similar studies as those described in Examples 11 and 12 were performed, except using CAR-expressing T cells generated from two different patient donors. CD3-purified T cells were isolated from peripheral blood mononuclear cells (PBMCs) of two donor patients, transduced with a viral vector encoding an anti-CD19 CAR having an scFv derived from FMC63, expanded in culture, frozen, and thawed.
Thawed CD4+, CD8+ or co-cultures of CD4/CD8 (1:1 ratio) were seeded in wells of a 6-well plate at approximately 5×10^6 total cells/well in culture media that was additionally supplemented with cytokines as follows: for CD4+ cells or CD4+/CD8+ co-cultures media was supplemented with approximately 1200 IU/mL recombinant IL-7, 20 IU/mL recombinant IL-15 and 100 IU/mL recombinant IL-2; for CD8+ cells media was supplemented with 200 IU/mL recombinant IL-2 and 20 IU/mL recombinant IL-15. Anti-ID B-1 conjugated beads were added to cells at a 1:1 cell:bead ratio and incubated up to 9 days with a 50% media exchange every 2-3 days.
At various times of culture, the number of CD4+ or CD8+ transduced cells (as detected by anti-EGFR for expression of the EGFRt surrogate marker) present in the culture for each condition was assessed and fold expansion or frequency of the CAR-expressing cells as a percent of total cells was determined. Expression of PD-1 and CD25 and cell viability also was determined.

[2] = Stability of antibody conjugated beads (supernatant SDS-PAGE, Coomassie blue); assay type: physicochemical
Description: To assess stability of the anti-ID conjugated beads, the beads were pelleted, the supernatant was removed and loaded on a 4-12% Bis-Tris SDS-PAGE gel and the gel was stained with Coomassie blue. As a control for total protein conjugated on the beads, the pelleted beads were boiled in 4× (lithium dodecyl sulfate) LDS sample buffer at about 70° C. for 20 minutes and approximately 12.5 μL or 25 μL boiled supernatant also was run on SDS-PAGE gel and assessed by Coomassie blue. Approximately 2.5 μg or 5.0 μg anti-ID antibody that had not been conjugated to the beads (positive control) or 5 μL 0.1% HSA (negative control) also were assessed by SDS-PAGE and Coomassie blue staining.
Stability of the antibody conjugated beads was assessed by pelleting the antibody-conjugated beads, running the resultant supernatant on an 4-12% Bis-Tris gel, and staining the gel for protein with Coomassie blue. As a control for total protein conjugated on the beads, a 10 μL sample of supernatant from pelleted beads that were boiled in LDS sample buffer also was assessed. […] Bands corresponding to the antibodies were detected in the sample with the supernatant from the boiled sample.
Stability of the antibody conjugated beads was assessed by pelleting the antibody-conjugated beads, running the resultant supernatant on an 4-12% Bis-Tris gel, and staining the gel for protein with Coomassie blue. […]

[3] = system: T cells transduced with anti-CD19 CAR having an scFv derived from FMC63; assay: Cytokine levels and phenotype at thaw versus after 9 days with anti-ID B-1 conjugated beads; assay type: cell-based, human; conditions: 9 days with beads versus immediately after thaw
Source text: CD3-purified T cells were isolated from peripheral blood mononuclear cells (PBMCs) of two donor patients, transduced with a viral vector encoding an anti-CD19 CAR having an scFv derived from FMC63 and expanded in culture with anti-CD3 and anti-CD28 antibody coated beads. After expansion, the expanded T cells were frozen by cryopreservation. For the studies, frozen T cells were thawed and CD4+ and CD8+ T cells assessed for intracellular cytokine levels or surface phenotype (d=0) or thawed CD4+, CD8+, or CD4+/CD8+ co-culture T cells were cultured for an additional 9 days in the presence of anti-ID B-1 conjugated beads prior to assessing intracellular cytokine levels and surface marker phenotype following stimulation by PMA/ionomycin or CD19 transduced K562 cells (d=9).
For assessment of intracellular cytokine levels, Golgi inhibitor was added for 4 hours and then TNFα, IFNγ, and IL-2 was assessed by flow cytometry. For all conditions, the extent of intracellular cytokine expression was substantially greater when cells were stimulated in with PMA/ionomycin as compared to CAR-specific stimulation with CD19 transduced K562 cells. […] Similar results were obtained in cells from the two donors.
Surface expression of the activation marker CD25, surface expression of inhibitory receptors PD-1 and LAG-3, and nuclear expression of the proliferation marker Ki-67 were also assessed in CD4+ or CD8+ cells immediately after thaw (d=0) or in CD4+ or CD8+ T cells expanded alone or as a CD4/CD8 co-culture for an additional 9 days in the presence of the anti-ID conjugated beads (d=9).

[4] = system: anti-CD19 CAR-T cell compositions; assay: Long-term (15 day) stimulation with anti-ID conjugated beads of CAR-T compositions made with compounds; assay type: cell-based, human; conditions: 1:1 bead:cell, 15 days, counted every 5 days
Description: Engineered T cell compositions containing T cells that express an anti-CD19 CAR were generated from three separate donors in the presence of different compounds or a vehicle control.
The ability of the cells from the different T cell compositions to expand following stimulation of the CAR was assessed by incubating cells of the generated anti-CD19 CAR-T cell compositions with beads surface conjugated with an anti-idiotype antibody specific to the anti-CD19 CAR. The anti-ID conjugated beads were incubated with cells at a 1:1 bead:cell ratio in wells of 24-well G-rex expansion vessels (Argos Technologies) for 15 days. The total live T cells per well was determined by counting cells in the cultures every 5 days (FIG. 25A). The mean area under the curve (AUC) of the function of T cell number over time was calculated relative to the AUC of cells expanded with media only (FIG. 25B).
Secondary cytokine response after stimulation with antigen-expressing cells was assessed on CAR-T cells from the T cell compositions harvested at day 11 following expansion with anti-ID conjugated beads. The anti-ID stimulated cells were incubated with irradiated K562-CD19 target cells at an effector:target ratio of 1:1 for approximately 16 hours. Supernatant was collected and TNF-alpha, IFN-gamma, and IL-2 cytokine production were measured using a Luminex Multiplex Assay. […]

B1: anti-ID conjugated beads: FMC63-derived scFv-specific anti-idiotype antibody (B-1 in Examples 10-14) covalently coupled to tosyl-activated magnetic beads (conjugate)
heavy: EVQLQQSGPELVKPGASVKMSCKASGYTFTDYYMKWVKQCHGKSLEWIGDINPNNGGTDYNQNFKGKATLTVDKSSSTAYMQLNSLTSEDSAVYYCAREGNNYGSRDAMDYWGQGTSVTVSSAKTTAPSVYPLAPVCGDTTGSSVTLGCLVKGYFPEPVTLTWNSGSLSSGVHTFPAVLQSDLYTLSSSVTVTSSTWPSQSITCNVAHPASSTKVDKKIEPRGPTIKPCPPCKCPAPNLLGGPSVFIFPPKIKDVLMISLSPIVTCVVVDVSEDDPDVQISWFVNNVEVHTAQTQTHREDYNSTLRVVSALPIQHQDWMSGKEFKCKVNNKDLPAPIERTISKPKGSVRAPQVYVLPPPEEEMTKKQVTLTCMVTDFMPEDIYVEWTNNGKTELNYKNTEPVLDSDGSYFMYSKLRVEKKNWVERNSYSCSVVHEGLHNHHTTKSFSRTPGK
light: QIVLTQSPALMSASPGEKVTMTCSASSGVIYMYWYQQKPRSSPKPWIYLTSNLASGVPARFSGSGSGTSYSLTISSMEAEDAATYYCQQWSSNPLTFGAGTKLELKRADAAPTVSIFPPSSEQLTSGGASVVCFLNNFYPKDINVKWKIDGSERQNGVLNSWTDQDSKDSTYSMSSTLTLTKDEYERHNSYTCEATHKTSTSPIVKSFNRNEC
expansion of CAR-expressing (EGFRt+) CD4+ T cells ([1]; CD4+ cells cultured alone, 1:1 cell:bead, up to 9 days): over 60 fold | expansion of CAR-expressing (EGFRt+) CD8+ T cells ([1]; CD8+ T cells co-cultured with CD4+ cells): substantially higher expansion | CD25 expression ([1]; after 9 days): also was decreased | frequency of transduced cells (EGFRt+) in the culture ([1]; day 9): > 90% | PD-1 expression on CD4+ and CD8+ T cells ([1]; days 5, 7 and 9): decreased substantially over time | Viability of CD4+ and CD8+ cells ([1]; during the 9 day culture): ~100% | stability of the conjugation [2]: the conjugation was stable | expression of CD25 and Ki-67 [3]: reduced expression of CD25, but not Ki-67 | expression of PD-1 and LAG-3 [3]: decreased expression of PD-1 and LAG-3 | levels of IFNγ [3]: Increased levels of IFNγ | total live T cells per well [4]: initial expansion that was followed by a decline in cell number
